Results as given in article PMC10950897 (Nature Communications, 2024).
Where no end group is shown, it is not given here. The star is where a group is joined. Biotin = O=C1N[C@H]2[C@H](CS[C@H]2CCCCC(=O)*)N1

Experiments:
His6-p97 WT [1] = target: T1, His6-p97 WT (human, UniProt P55072 1-806); assay: SPR; Biacore T200, 25 C, His6-p97 amine-coupled to CM5 chip (~400 RU), Strep-HA-VCF1 full-length as analyte up to 100 nM, PBS-P with 0.5 mM TCEP, 1:1 model; conditions: both partners purified
T1 construct: p97/VCP, human; from plasmid pET15b-His6-p97; hexamer by mass photometry (535 kDa); also called recombinant p97; purified p97; source: E. coli BL21(DE3), purified (Ni-NTA, Superose 6)

His6-p97 WT [2] = target: T1, His6-p97 WT; assay: pull-down; biotinylated VRM, VIM or VBM peptides immobilized on StrepTactin agarose, incubated with purified WT or mutant His6-p97, washed extensively in RIPA buffer, immunoblot; conditions: both partners purified

T1 sequence (P55072 whole entry): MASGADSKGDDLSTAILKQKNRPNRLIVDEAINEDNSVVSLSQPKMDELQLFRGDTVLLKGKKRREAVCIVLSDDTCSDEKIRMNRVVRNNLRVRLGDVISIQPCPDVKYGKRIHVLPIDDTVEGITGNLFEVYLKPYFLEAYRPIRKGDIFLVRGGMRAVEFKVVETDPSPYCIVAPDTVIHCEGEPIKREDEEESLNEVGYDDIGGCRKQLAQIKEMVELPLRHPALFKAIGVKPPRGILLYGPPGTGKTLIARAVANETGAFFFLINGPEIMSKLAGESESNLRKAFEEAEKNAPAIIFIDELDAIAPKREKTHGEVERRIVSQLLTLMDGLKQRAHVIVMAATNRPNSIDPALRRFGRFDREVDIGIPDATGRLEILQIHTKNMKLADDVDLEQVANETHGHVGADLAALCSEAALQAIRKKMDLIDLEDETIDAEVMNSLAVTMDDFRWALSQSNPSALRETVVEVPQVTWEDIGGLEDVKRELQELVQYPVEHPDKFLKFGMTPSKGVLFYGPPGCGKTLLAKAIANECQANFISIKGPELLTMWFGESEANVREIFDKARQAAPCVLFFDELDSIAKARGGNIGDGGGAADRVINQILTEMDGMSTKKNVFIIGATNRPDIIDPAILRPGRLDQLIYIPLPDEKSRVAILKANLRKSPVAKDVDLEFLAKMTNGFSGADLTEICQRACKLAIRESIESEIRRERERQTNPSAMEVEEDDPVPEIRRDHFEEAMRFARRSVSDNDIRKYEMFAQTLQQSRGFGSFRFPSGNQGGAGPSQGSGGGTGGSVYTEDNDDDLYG

Kd (His6-p97 WT [1]) [nM] | binding result (His6-p97 WT [2]) | Binder
~10 |  | Strep-HA-VCF1 WT (natural protein, VCF1 (FAM104A), human, isoform 1, 186 amino acids; cDNA inserted into pcDNA5/FRT/TO/Strep-HA; also called recombinant VCF1; full-length VCF1; source: HEK293-EBNA1-6E, transfected, purified (Strep-Tactin, Superose 6)) not shown
 | binds | Biotin-NLTSEELRKRREAYFEKQQQK (ATXN3 (ataxin-3), human, VBM motif, aa275-295; also called peptide spanning the VBM in ATXN3; source: synthetic peptide, bought: GenScript) [VBM (ATXN3, aa275-295) peptide]
 | binds | Biotin-PTPDLEEKRAKLAEAAERRQKEAAS (SVIP, human, VIM motif; also called peptide spanning the VIM in SVIP; source: synthetic peptide, bought: GenScript) [VIM (SVIP, aa14-39) peptide]
